According to publication PMC6663966:

Experiments:
Experiment in all cases: purified protein
Details in all cases: HEPES buffer supplemented with zinc; room temperature
[1] = tested on: CO/N=C(\C(=O)N[C@@H]1C(=O)N2C(C(=O)[O-])=C(C[N+]3(C)CCCC3)CS[C@H]12)c1csc(N)n1
[2] = tested on: C[C@@H](O)[C@H]1C(=O)N2C(C(=O)O)=C(S[C@@H]3CN[C@H](C(=O)N(C)C)C3)[C@H](C)[C@H]12
[3] = tested on: CO[C@@]1(NC(=O)Cc2cccs2)C(=O)N2C(C(=O)O)=C(COC(N)=O)CS[C@@H]21
[4] = tested on: C[C@@H](O)[C@H]1C(=O)N2C(C(=O)O)=C(S[C@@H]3CN[C@H](C(=O)Nc4cccc(C(=O)O)c4)C3)[C@H](C)[C@H]12
[5] = tested on: C[C@@H](O)[C@H]1C(=O)N2C(C(=O)O)=C(SCCN=CN)C[C@H]12
[6] = tested on: C[C@H]1[C@H](NC(=O)/C(=N\OC(C)(C)C(=O)O)c2csc(N)n2)C(=O)N1S(=O)(=O)O
[7] = tested on: CC(C)(O/N=C(\C(=O)N[C@@H]1C(=O)N2C(C(=O)[O-])=C(C[n+]3ccccc3)CS[C@H]12)c1csc(N)n1)C(=O)O
[8] = tested on: CC1(C)S[C@@H]2[C@H](NC(=O)Cc3ccccc3)C(=O)N2[C@H]1C(=O)O
[9] = tested on: CC(=O)OCC1=C(C(=O)O)N2C(=O)[C@@H](NC(=O)Cc3cccs3)[C@H]2SC1
[10] = tested on: CO/N=C(\C(=O)N[C@@H]1C(=O)N2C(C(=O)O)=C(COC(C)=O)CS[C@H]12)c1csc(N)n1
[11] = tested on: CCN1CCN(C(=O)N[C@@H](C(=O)N[C@@H]2C(=O)N3[C@@H]2SC(C)(C)[C@@H]3C(=O)O)c2ccccc2)C(=O)C1=O

Q: Which kcat [1] does the source give for “PAN-1 (Pseudobacteriovorax antillogorgiicola)” here?
A: Its kcat is under 0.01 s⁻¹.

Q: And the Km [2]?
A: The Km was 386 µM.

Q: And the kcat [2]?
A: The kcat was 22.9 s⁻¹.

Q: What about the kcat/Km [2] of the same substance?
A: Its kcat/Km is 59000 M⁻¹ s⁻¹.

Q: And the Km [3]?
A: The Km was 13.3 µM.

Q: What about the kcat [3] of the same substance?
A: The kcat was 1.9 s⁻¹.

Q: What about the kcat/Km [3] of the same substance?
A: Its kcat/Km is 143000 M⁻¹ s⁻¹.

Q: What about the Km [4] of the same substance?
A: The Km was 368.5 µM.

Q: And the kcat [4]?
A: Its kcat is 2.9 s⁻¹.

Q: And the kcat/Km [4]?
A: Its kcat/Km is 7800 M⁻¹ s⁻¹.

Q: What about the Km [5] of the same substance?
A: The Km was 470.5 µM.

Q: And the kcat [5]?
A: Its kcat is 43.8 s⁻¹.

Q: What about the kcat/Km [5] of the same substance?
A: Its kcat/Km is 93100 M⁻¹ s⁻¹.

Q: What about the kcat [6] of the same substance?
A: The kcat was under 0.01 s⁻¹.

Q: And the Km [7]?
A: The Km was 144.4 µM.

Q: And the kcat [7]?
A: The kcat was 8.1 s⁻¹.

Q: And the kcat/Km [7]?
A: The kcat/Km was 56000 M⁻¹ s⁻¹.

Q: What about the Km [8] of the same substance?
A: Its Km is 161 µM.

Q: What about the kcat [8] of the same substance?
A: The kcat was 23.6 s⁻¹.

Q: And the kcat/Km [8]?
A: Its kcat/Km is 146000 M⁻¹ s⁻¹.

Q: And the Km [9]?
A: The Km was 32.2 µM.

Q: What about the kcat [9] of the same substance?
A: Its kcat is 6.9 s⁻¹.

Q: And the kcat/Km [9]?
A: The kcat/Km was 214000 M⁻¹ s⁻¹.

Q: And the Km [10]?
A: The Km was 245.7 µM.

Q: And the kcat [10]?
A: Its kcat is 3.9 s⁻¹.

Q: And the kcat/Km [10]?
A: Its kcat/Km is 16000 M⁻¹ s⁻¹.

Q: What about the Km [11] of the same substance?
A: The Km was 1074.2 µM.

Q: What about the kcat [11] of the same substance?
A: Its kcat is 73.6 s⁻¹.

Q: And the kcat/Km [11]?
A: Its kcat/Km is 68000 M⁻¹ s⁻¹.
